B1: glmS ribozyme (parent)
chain: AUAAAAGCGCCAGAACUACAGAAAUGUAGUUGACGAGGAGGAGGUUUAUCGAAUUUUCGGCGGAUGCCUCCAAA

What all share (conditions): with glucosamine-6-phosphate
In data set [1] the parent is B1. Briefly: self-cleavage kobs at 160 uM GlcN6P; higher = faster cleavage; RNA array. Summed up:
(§1)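 Glucosamine-6-phosphate (40 μM to 10 mM) in HEPES/KCl/Mg(OAc)2 buffer was flowed over sequenced MiSeq chips, and tiles were imaged over ~14 h. Barcoded ribozyme variants there had been transcribed in situ by E. coli RNA polymerase and were tracked through a hybridised Cy3 probe at 37 °C. One- or two-exponential decay fits to per-tile medians, normalised to baseline and to non-cleaving reference variants, gave kobs. kcat and KM came from weighted Michaelis–Menten fits across concentrations.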

The variants in data set [2] derive from B1. Briefly: self-cleavage kobs at 2500 uM GlcN6P; higher = faster cleavage; RNA array. A digest of the protocol:
as §1

Variants of B1 are the subject of data set [3]. The data set can be described thus: self-cleavage kobs at 640 uM GlcN6P; higher = faster cleavage; RNA array. A digest of the protocol:
as §1

Variants of B1 are the subject of data set [4]. Briefly: self-cleavage kobs at 10000 uM GlcN6P; higher = faster cleavage; RNA array. Summed up:
as §1

± gives the standard error. Variants at the floor of the assay were thinned out.

As for C19A U65A, in the data set with glucosamine-6-phosphate [1], the “self-cleavage kobs at 160 uM GlcN6P” value came out at 0.000107 ± 4.8e-05 s⁻¹. In addition, the “self-cleavage kobs at 2500 uM GlcN6P” value with glucosamine-6-phosphate [2] amounted to 0.00137 ± 0.00051 s⁻¹.

For C8U C16A A39C U46C G51A U65G U69A, the “self-cleavage kobs at 160 uM GlcN6P” value with glucosamine-6-phosphate [1] is less than 1e-05 s⁻¹. For the same variant, in the data set with glucosamine-6-phosphate [2], the “self-cleavage kobs at 2500 uM GlcN6P” value is less than 1e-05 s⁻¹.

As to C8G A33C A48C U69G, in the data set with glucosamine-6-phosphate [1], the “self-cleavage kobs at 160 uM GlcN6P” value is less than 1e-05 s⁻¹. Also, the “self-cleavage kobs at 2500 uM GlcN6P” value in the data set with glucosamine-6-phosphate [2] was less than 1e-05 s⁻¹.

Take G62A U65G: the “self-cleavage kobs at 160 uM GlcN6P” value with glucosamine-6-phosphate [1] was less than 1e-05 s⁻¹. The “self-cleavage kobs at 640 uM GlcN6P” value in the data set with glucosamine-6-phosphate [3] is less than 1e-05 s⁻¹. Also, the “self-cleavage kobs at 2500 uM GlcN6P” value with glucosamine-6-phosphate [2] is less than 1e-05 s⁻¹. In addition, the “self-cleavage kobs at 10000 uM GlcN6P” value in the data set with glucosamine-6-phosphate [4] was less than 1e-05 s⁻¹.

G7A U30G: in the data set with glucosamine-6-phosphate [1], the “self-cleavage kobs at 160 uM GlcN6P” value was less than 1e-05 s⁻¹. In the data set with glucosamine-6-phosphate [2], the “self-cleavage kobs at 2500 uM GlcN6P” value is less than 1e-05 s⁻¹.

A6C A12C A36C G43A G51U C70G: the “self-cleavage kobs at 160 uM GlcN6P” value with glucosamine-6-phosphate [1] was less than 1e-05 s⁻¹. Further, the “self-cleavage kobs at 640 uM GlcN6P” value in the data set with glucosamine-6-phosphate [3] is less than 1e-05 s⁻¹.

For G43C C71G, the “self-cleavage kobs at 160 uM GlcN6P” value in the data set with glucosamine-6-phosphate [1] is less than 1e-05 s⁻¹. Further, in the data set with glucosamine-6-phosphate [3], the “self-cleavage kobs at 640 uM GlcN6P” value was less than 1e-05 s⁻¹. The “self-cleavage kobs at 2500 uM GlcN6P” value with glucosamine-6-phosphate [2] was less than 1e-05 s⁻¹.

Regarding G60U G63C C70G, the “self-cleavage kobs at 160 uM GlcN6P” value with glucosamine-6-phosphate [1] is less than 1e-05 s⁻¹. The “self-cleavage kobs at 640 uM GlcN6P” value with glucosamine-6-phosphate [3] is less than 1e-05 s⁻¹.

As to C10A A33C G44A A52G U65A, the “self-cleavage kobs at 160 uM GlcN6P” value with glucosamine-6-phosphate [1] was less than 1e-05 s⁻¹.

Consider C16U G29C G44U C67G, for which the “self-cleavage kobs at 160 uM GlcN6P” value in the data set with glucosamine-6-phosphate [1] amounted to 0.000224 ± 0.0001 s⁻¹.

As to A12C G43U A53C, the “self-cleavage kobs at 160 uM GlcN6P” value with glucosamine-6-phosphate [1] is less than 1e-05 s⁻¹.

Regarding G9A C67A C68G, the “self-cleavage kobs at 160 uM GlcN6P” value with glucosamine-6-phosphate [1] was less than 1e-05 s⁻¹. Moreover, the “self-cleavage kobs at 640 uM GlcN6P” value with glucosamine-6-phosphate [3] was less than 1e-05 s⁻¹. Moreover, in the data set with glucosamine-6-phosphate [2], the “self-cleavage kobs at 2500 uM GlcN6P” value was less than 1e-05 s⁻¹.

In the case of C11G A14C U69A, the “self-cleavage kobs at 160 uM GlcN6P” value with glucosamine-6-phosphate [1] is 0.000527 ± 0.00014 s⁻¹. In addition, the “self-cleavage kobs at 2500 uM GlcN6P” value in the data set with glucosamine-6-phosphate [2] is 9.25e-05 ± 3.6e-05 s⁻¹.

Regarding A15C A42U U46G C50G, the “self-cleavage kobs at 160 uM GlcN6P” value in the data set with glucosamine-6-phosphate [1] is less than 1e-05 s⁻¹. In addition, the “self-cleavage kobs at 640 uM GlcN6P” value with glucosamine-6-phosphate [3] was less than 1e-05 s⁻¹. The “self-cleavage kobs at 2500 uM GlcN6P” value with glucosamine-6-phosphate [2] is less than 1e-05 s⁻¹.

Take G13A A33C U55A: the “self-cleavage kobs at 160 uM GlcN6P” value with glucosamine-6-phosphate [1] was less than 1e-05 s⁻¹. In addition, in the data set with glucosamine-6-phosphate [3], the “self-cleavage kobs at 640 uM GlcN6P” value was less than 1e-05 s⁻¹. Further, the “self-cleavage kobs at 2500 uM GlcN6P” value in the data set with glucosamine-6-phosphate [2] was less than 1e-05 s⁻¹.

For the variant C34U U47G, the “self-cleavage kobs at 160 uM GlcN6P” value with glucosamine-6-phosphate [1] is less than 1e-05 s⁻¹. The “self-cleavage kobs at 640 uM GlcN6P” value in the data set with glucosamine-6-phosphate [3] was less than 1e-05 s⁻¹.

Consider G37A G51A C71A, for which the “self-cleavage kobs at 160 uM GlcN6P” value in the data set with glucosamine-6-phosphate [1] is less than 1e-05 s⁻¹. Moreover, the “self-cleavage kobs at 2500 uM GlcN6P” value with glucosamine-6-phosphate [2] was less than 1e-05 s⁻¹.

For the variant G13U U31C A33U G41A G43C, in the data set with glucosamine-6-phosphate [1], the “self-cleavage kobs at 160 uM GlcN6P” value is less than 1e-05 s⁻¹.

For G7U C67A, the “self-cleavage kobs at 160 uM GlcN6P” value with glucosamine-6-phosphate [1] is less than 1e-05 s⁻¹. In addition, the “self-cleavage kobs at 640 uM GlcN6P” value with glucosamine-6-phosphate [3] is less than 1e-05 s⁻¹.

As for C16U U55C, the “self-cleavage kobs at 160 uM GlcN6P” value with glucosamine-6-phosphate [1] was determined as 0.00153 ± 0.00037 s⁻¹. In addition, in the data set with glucosamine-6-phosphate [2], the “self-cleavage kobs at 2500 uM GlcN6P” value is 0.00585 ± 0.0013 s⁻¹.

For A6C C8U C10G A12U G38U, in the data set with glucosamine-6-phosphate [1], the “self-cleavage kobs at 160 uM GlcN6P” value is less than 1e-05 s⁻¹. Besides, in the data set with glucosamine-6-phosphate [3], the “self-cleavage kobs at 640 uM GlcN6P” value was less than 1e-05 s⁻¹. In addition, in the data set with glucosamine-6-phosphate [2], the “self-cleavage kobs at 2500 uM GlcN6P” value is less than 1e-05 s⁻¹.

Take A36U C61G C70G: in the data set with glucosamine-6-phosphate [1], the “self-cleavage kobs at 160 uM GlcN6P” value turned out to be 6.28e-05 ± 2.3e-05 s⁻¹. Also, in the data set with glucosamine-6-phosphate [3], the “self-cleavage kobs at 640 uM GlcN6P” value amounted to 9.55e-05 ± 2.6e-05 s⁻¹.

Regarding G9C C10A G43C C67U, in the data set with glucosamine-6-phosphate [1], the “self-cleavage kobs at 160 uM GlcN6P” value was less than 1e-05 s⁻¹. In addition, the “self-cleavage kobs at 640 uM GlcN6P” value in the data set with glucosamine-6-phosphate [3] is less than 1e-05 s⁻¹. In addition, in the data set with glucosamine-6-phosphate [2], the “self-cleavage kobs at 2500 uM GlcN6P” value was less than 1e-05 s⁻¹.

In the case of A33C G41A, the “self-cleavage kobs at 160 uM GlcN6P” value with glucosamine-6-phosphate [1] was less than 1e-05 s⁻¹. The “self-cleavage kobs at 640 uM GlcN6P” value in the data set with glucosamine-6-phosphate [3] was less than 1e-05 s⁻¹.

As for G7C G37U, the “self-cleavage kobs at 160 uM GlcN6P” value in the data set with glucosamine-6-phosphate [1] is less than 1e-05 s⁻¹. For the same variant, the “self-cleavage kobs at 640 uM GlcN6P” value in the data set with glucosamine-6-phosphate [3] was less than 1e-05 s⁻¹. The “self-cleavage kobs at 2500 uM GlcN6P” value with glucosamine-6-phosphate [2] was less than 1e-05 s⁻¹.

With A42C G51U A53C C71G, the “self-cleavage kobs at 160 uM GlcN6P” value in the data set with glucosamine-6-phosphate [1] was less than 1e-05 s⁻¹.

On to C34A G41C, for which, in the data set with glucosamine-6-phosphate [1], the “self-cleavage kobs at 160 uM GlcN6P” value is less than 1e-05 s⁻¹. Also, in the data set with glucosamine-6-phosphate [3], the “self-cleavage kobs at 640 uM GlcN6P” value was less than 1e-05 s⁻¹. For the same variant, the “self-cleavage kobs at 2500 uM GlcN6P” value in the data set with glucosamine-6-phosphate [2] is less than 1e-05 s⁻¹. Besides, the “self-cleavage kobs at 10000 uM GlcN6P” value with glucosamine-6-phosphate [4] is less than 1e-05 s⁻¹.

A12U G41U U45A: in the data set with glucosamine-6-phosphate [1], the “self-cleavage kobs at 160 uM GlcN6P” value is 0.00011 ± 2.8e-05 s⁻¹. In addition, the “self-cleavage kobs at 640 uM GlcN6P” value in the data set with glucosamine-6-phosphate [3] stood at 0.000308 ± 5.9e-05 s⁻¹. Also, in the data set with glucosamine-6-phosphate [2], the “self-cleavage kobs at 2500 uM GlcN6P” value amounted to 0.000989 ± 0.00025 s⁻¹.

These data come from the supplement of paper PMC7125110.
